Source: IntAct's records for PubMed 24352239

Molecular target: spt16_yeast SPT16 (UniProt P32558)
Sequence (P32558 whole entry): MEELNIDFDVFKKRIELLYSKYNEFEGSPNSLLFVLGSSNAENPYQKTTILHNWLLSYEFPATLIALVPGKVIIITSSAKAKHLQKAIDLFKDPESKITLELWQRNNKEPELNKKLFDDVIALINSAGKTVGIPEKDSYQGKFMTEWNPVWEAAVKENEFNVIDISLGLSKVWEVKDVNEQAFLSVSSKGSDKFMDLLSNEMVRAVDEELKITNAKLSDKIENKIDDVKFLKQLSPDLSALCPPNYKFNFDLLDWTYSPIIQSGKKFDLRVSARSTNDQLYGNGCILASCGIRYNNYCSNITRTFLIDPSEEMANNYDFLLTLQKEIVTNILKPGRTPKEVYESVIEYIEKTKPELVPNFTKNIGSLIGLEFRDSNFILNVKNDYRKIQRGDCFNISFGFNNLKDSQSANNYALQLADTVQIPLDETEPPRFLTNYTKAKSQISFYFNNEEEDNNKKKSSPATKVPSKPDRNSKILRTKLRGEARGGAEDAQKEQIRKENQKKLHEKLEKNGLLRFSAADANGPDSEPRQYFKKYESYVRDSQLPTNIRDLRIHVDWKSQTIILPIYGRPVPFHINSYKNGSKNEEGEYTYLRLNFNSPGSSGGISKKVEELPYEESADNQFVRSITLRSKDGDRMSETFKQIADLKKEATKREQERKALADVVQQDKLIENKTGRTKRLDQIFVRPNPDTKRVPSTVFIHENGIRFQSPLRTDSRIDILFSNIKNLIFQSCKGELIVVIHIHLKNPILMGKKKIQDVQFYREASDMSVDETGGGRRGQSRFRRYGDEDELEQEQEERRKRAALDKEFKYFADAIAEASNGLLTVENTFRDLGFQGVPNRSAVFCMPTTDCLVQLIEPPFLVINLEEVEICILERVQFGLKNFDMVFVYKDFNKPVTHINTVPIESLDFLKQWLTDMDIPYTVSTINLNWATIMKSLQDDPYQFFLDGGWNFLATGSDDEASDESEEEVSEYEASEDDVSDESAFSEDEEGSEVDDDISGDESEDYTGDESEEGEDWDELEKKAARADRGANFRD

effect of a mutation on the interaction: decreasing interaction strength
Substance: Histone H2A type 3 (Homo sapiens) (from UniProt Q7L7L0) Q105A
